Results as given in publication doi:10.1101/329482 (bioRxiv, 2018).

Target: GP1 receptor-binding domain of Lujo virus (LUJVGP1), residues 74-199 (Lujo virus (LUJV), UniProt C5ILC1 74-199)
Assay: crystal structure

B1: first CUB domain of neuropilin-2 (NRP2), binding site fragment (domain or fragment)
chain: PCGGRLNSKDAGYITSPGYPQDYPSHQNCEWIVYAPEPNQKIVLNFNPHFEIEKHDCKYDFIEIRDGDSESADLLGKHCGNIAPPTIISSGSMLYIKFTSDYARQGAGFSLRYEIFKTGS
- binding result: binds
